Results as given in article PMC5717138.

Experiments:
[1] = denaturing Flag IP, anti-HA-Ub and anti-K48-Ub blot; details: glycan lost; control: wild type
[2] = GFP-Polη foci, U2OS, 24 h post-UVC; details: glycan lost; control: wild type
[3] = in vitro ubiquitination of E. coli-purified His-Polη; details: control: WT His-Polη without OGT co-expression
[4] = GFP-Polη foci, U2OS, 8 h post-UVC; details: glycan lost; control: wild type

B1: DNA polymerase η (Polη): 3A (protein)
parent chain: MATGQDRVVALVDMDCFFVQVEQRQNPHLRNKPCAVVQYKSWKGGGIIAVSYEARAFGVTRSMWADDAKKLCPDLLLAQVRESRGKANLTKYREASVEVMEIMSRFAVIERASIDEAYVDLTSAVQERLQKLQGQPISADLLPSTYIEGLPQGPTTAEETVQKEGMRKQGLFQWLDSLQIDNLTSPDLQLTVGAVIVEEMRAAIERETGFQCSAGISHNKVLAKLACGLNKPNRQTLVSHGSVPQLFSQMPIRKIRSLGGKLGASVIEILGIEYMGELTQFTESQLQSHFGEKNGSWLYAMCRGIEHDPVKPRQLPKTIGCSKNFPGKTALATREQVQWWLLQLAQELEERLTKDRNDNDRVATQLVVSIRVQGDKRLSSLRRCCALTRYDAHKMSHDAFTVIKNCNTSGIQTEWSPPLTMLFLCATKFSASAPSSSTDITSFLSSDPSSLPKVPVTSSEAKTQGSGPAVTATKKATTSLESFFQKAAERQKVKEASLSSLTAPTQAPMSNSPSKPSLPFQTSQSTGTEPFFKQKSLLLKQKQLNNSSVSSPQQNPWSNCKALPNSLPTEYPGCVPVCEGVSKLEESSKATPAEMDLAHNSQSMHASSASKSVLEVTQKATPNPSLLAAEDQVPCEKCGSLVPVWDMPEHMDYHFALELQKSFLQPHSSNPQVVSAVSHQGKRNPKSPLACTNKRPRPEGMQTLESFFKPLTH
Question: With B1 as the protein, how does the “other: polyubiquitination” value [1] read?
Answer: decreases

B2: DNA polymerase η (Polη): T457D (protein)
parent chain: MATGQDRVVALVDMDCFFVQVEQRQNPHLRNKPCAVVQYKSWKGGGIIAVSYEARAFGVTRSMWADDAKKLCPDLLLAQVRESRGKANLTKYREASVEVMEIMSRFAVIERASIDEAYVDLTSAVQERLQKLQGQPISADLLPSTYIEGLPQGPTTAEETVQKEGMRKQGLFQWLDSLQIDNLTSPDLQLTVGAVIVEEMRAAIERETGFQCSAGISHNKVLAKLACGLNKPNRQTLVSHGSVPQLFSQMPIRKIRSLGGKLGASVIEILGIEYMGELTQFTESQLQSHFGEKNGSWLYAMCRGIEHDPVKPRQLPKTIGCSKNFPGKTALATREQVQWWLLQLAQELEERLTKDRNDNDRVATQLVVSIRVQGDKRLSSLRRCCALTRYDAHKMSHDAFTVIKNCNTSGIQTEWSPPLTMLFLCATKFSASAPSSSTDITSFLSSDPSSLPKVPVTSSEAKTQGSGPAVTATKKATTSLESFFQKAAERQKVKEASLSSLTAPTQAPMSNSPSKPSLPFQTSQSTGTEPFFKQKSLLLKQKQLNNSSVSSPQQNPWSNCKALPNSLPTEYPGCVPVCEGVSKLEESSKATPAEMDLAHNSQSMHASSASKSVLEVTQKATPNPSLLAAEDQVPCEKCGSLVPVWDMPEHMDYHFALELQKSFLQPHSSNPQVVSAVSHQGKRNPKSPLACTNKRPRPEGMQTLESFFKPLTH
Question: For B2, which localisation_or_trafficking [2] is on record?
Answer: increases

B3: DNA polymerase η (Polη): 5A (protein)
parent chain: MATGQDRVVALVDMDCFFVQVEQRQNPHLRNKPCAVVQYKSWKGGGIIAVSYEARAFGVTRSMWADDAKKLCPDLLLAQVRESRGKANLTKYREASVEVMEIMSRFAVIERASIDEAYVDLTSAVQERLQKLQGQPISADLLPSTYIEGLPQGPTTAEETVQKEGMRKQGLFQWLDSLQIDNLTSPDLQLTVGAVIVEEMRAAIERETGFQCSAGISHNKVLAKLACGLNKPNRQTLVSHGSVPQLFSQMPIRKIRSLGGKLGASVIEILGIEYMGELTQFTESQLQSHFGEKNGSWLYAMCRGIEHDPVKPRQLPKTIGCSKNFPGKTALATREQVQWWLLQLAQELEERLTKDRNDNDRVATQLVVSIRVQGDKRLSSLRRCCALTRYDAHKMSHDAFTVIKNCNTSGIQTEWSPPLTMLFLCATKFSASAPSSSTDITSFLSSDPSSLPKVPVTSSEAKTQGSGPAVTATKKATTSLESFFQKAAERQKVKEASLSSLTAPTQAPMSNSPSKPSLPFQTSQSTGTEPFFKQKSLLLKQKQLNNSSVSSPQQNPWSNCKALPNSLPTEYPGCVPVCEGVSKLEESSKATPAEMDLAHNSQSMHASSASKSVLEVTQKATPNPSLLAAEDQVPCEKCGSLVPVWDMPEHMDYHFALELQKSFLQPHSSNPQVVSAVSHQGKRNPKSPLACTNKRPRPEGMQTLESFFKPLTH
Question: For B3, which “other: polyubiquitination” value [1] is on record?
Answer: decreases

B4: DNA polymerase η (Polη): T457A without OGT (protein)
parent chain: MATGQDRVVALVDMDCFFVQVEQRQNPHLRNKPCAVVQYKSWKGGGIIAVSYEARAFGVTRSMWADDAKKLCPDLLLAQVRESRGKANLTKYREASVEVMEIMSRFAVIERASIDEAYVDLTSAVQERLQKLQGQPISADLLPSTYIEGLPQGPTTAEETVQKEGMRKQGLFQWLDSLQIDNLTSPDLQLTVGAVIVEEMRAAIERETGFQCSAGISHNKVLAKLACGLNKPNRQTLVSHGSVPQLFSQMPIRKIRSLGGKLGASVIEILGIEYMGELTQFTESQLQSHFGEKNGSWLYAMCRGIEHDPVKPRQLPKTIGCSKNFPGKTALATREQVQWWLLQLAQELEERLTKDRNDNDRVATQLVVSIRVQGDKRLSSLRRCCALTRYDAHKMSHDAFTVIKNCNTSGIQTEWSPPLTMLFLCATKFSASAPSSSTDITSFLSSDPSSLPKVPVTSSEAKTQGSGPAVTATKKATTSLESFFQKAAERQKVKEASLSSLTAPTQAPMSNSPSKPSLPFQTSQSTGTEPFFKQKSLLLKQKQLNNSSVSSPQQNPWSNCKALPNSLPTEYPGCVPVCEGVSKLEESSKATPAEMDLAHNSQSMHASSASKSVLEVTQKATPNPSLLAAEDQVPCEKCGSLVPVWDMPEHMDYHFALELQKSFLQPHSSNPQVVSAVSHQGKRNPKSPLACTNKRPRPEGMQTLESFFKPLTH
Question: Which “other: polyubiquitination” value ([3]; glycan lost) does the source give for B4 here?
Answer: no change

B5: DNA polymerase η (Polη): T457E (protein)
parent chain: MATGQDRVVALVDMDCFFVQVEQRQNPHLRNKPCAVVQYKSWKGGGIIAVSYEARAFGVTRSMWADDAKKLCPDLLLAQVRESRGKANLTKYREASVEVMEIMSRFAVIERASIDEAYVDLTSAVQERLQKLQGQPISADLLPSTYIEGLPQGPTTAEETVQKEGMRKQGLFQWLDSLQIDNLTSPDLQLTVGAVIVEEMRAAIERETGFQCSAGISHNKVLAKLACGLNKPNRQTLVSHGSVPQLFSQMPIRKIRSLGGKLGASVIEILGIEYMGELTQFTESQLQSHFGEKNGSWLYAMCRGIEHDPVKPRQLPKTIGCSKNFPGKTALATREQVQWWLLQLAQELEERLTKDRNDNDRVATQLVVSIRVQGDKRLSSLRRCCALTRYDAHKMSHDAFTVIKNCNTSGIQTEWSPPLTMLFLCATKFSASAPSSSTDITSFLSSDPSSLPKVPVTSSEAKTQGSGPAVTATKKATTSLESFFQKAAERQKVKEASLSSLTAPTQAPMSNSPSKPSLPFQTSQSTGTEPFFKQKSLLLKQKQLNNSSVSSPQQNPWSNCKALPNSLPTEYPGCVPVCEGVSKLEESSKATPAEMDLAHNSQSMHASSASKSVLEVTQKATPNPSLLAAEDQVPCEKCGSLVPVWDMPEHMDYHFALELQKSFLQPHSSNPQVVSAVSHQGKRNPKSPLACTNKRPRPEGMQTLESFFKPLTH
Question: Which localisation_or_trafficking [2] does the source give for B5 here?
Answer: increases

B6: DNA polymerase η (Polη): Polη-3A (protein)
parent chain: MATGQDRVVALVDMDCFFVQVEQRQNPHLRNKPCAVVQYKSWKGGGIIAVSYEARAFGVTRSMWADDAKKLCPDLLLAQVRESRGKANLTKYREASVEVMEIMSRFAVIERASIDEAYVDLTSAVQERLQKLQGQPISADLLPSTYIEGLPQGPTTAEETVQKEGMRKQGLFQWLDSLQIDNLTSPDLQLTVGAVIVEEMRAAIERETGFQCSAGISHNKVLAKLACGLNKPNRQTLVSHGSVPQLFSQMPIRKIRSLGGKLGASVIEILGIEYMGELTQFTESQLQSHFGEKNGSWLYAMCRGIEHDPVKPRQLPKTIGCSKNFPGKTALATREQVQWWLLQLAQELEERLTKDRNDNDRVATQLVVSIRVQGDKRLSSLRRCCALTRYDAHKMSHDAFTVIKNCNTSGIQTEWSPPLTMLFLCATKFSASAPSSSTDITSFLSSDPSSLPKVPVTSSEAKTQGSGPAVTATKKATTSLESFFQKAAERQKVKEASLSSLTAPTQAPMSNSPSKPSLPFQTSQSTGTEPFFKQKSLLLKQKQLNNSSVSSPQQNPWSNCKALPNSLPTEYPGCVPVCEGVSKLEESSKATPAEMDLAHNSQSMHASSASKSVLEVTQKATPNPSLLAAEDQVPCEKCGSLVPVWDMPEHMDYHFALELQKSFLQPHSSNPQVVSAVSHQGKRNPKSPLACTNKRPRPEGMQTLESFFKPLTH
Question: For B6, which localisation_or_trafficking [4] is on record?
Answer: no change

Question: And the localisation_or_trafficking [2]?
Answer: increases

B7: DNA polymerase η (Polη): GST-OGT co-expression (WT) (protein)
parent chain: MATGQDRVVALVDMDCFFVQVEQRQNPHLRNKPCAVVQYKSWKGGGIIAVSYEARAFGVTRSMWADDAKKLCPDLLLAQVRESRGKANLTKYREASVEVMEIMSRFAVIERASIDEAYVDLTSAVQERLQKLQGQPISADLLPSTYIEGLPQGPTTAEETVQKEGMRKQGLFQWLDSLQIDNLTSPDLQLTVGAVIVEEMRAAIERETGFQCSAGISHNKVLAKLACGLNKPNRQTLVSHGSVPQLFSQMPIRKIRSLGGKLGASVIEILGIEYMGELTQFTESQLQSHFGEKNGSWLYAMCRGIEHDPVKPRQLPKTIGCSKNFPGKTALATREQVQWWLLQLAQELEERLTKDRNDNDRVATQLVVSIRVQGDKRLSSLRRCCALTRYDAHKMSHDAFTVIKNCNTSGIQTEWSPPLTMLFLCATKFSASAPSSSTDITSFLSSDPSSLPKVPVTSSEAKTQGSGPAVTATKKATTSLESFFQKAAERQKVKEASLSSLTAPTQAPMSNSPSKPSLPFQTSQSTGTEPFFKQKSLLLKQKQLNNSSVSSPQQNPWSNCKALPNSLPTEYPGCVPVCEGVSKLEESSKATPAEMDLAHNSQSMHASSASKSVLEVTQKATPNPSLLAAEDQVPCEKCGSLVPVWDMPEHMDYHFALELQKSFLQPHSSNPQVVSAVSHQGKRNPKSPLACTNKRPRPEGMQTLESFFKPLTH
Question: For B7, which “other: polyubiquitination” value ([3]; glycan gained) is on record?
Answer: increases

B8: DNA polymerase η (Polη): Polη-5A (protein)
parent chain: MATGQDRVVALVDMDCFFVQVEQRQNPHLRNKPCAVVQYKSWKGGGIIAVSYEARAFGVTRSMWADDAKKLCPDLLLAQVRESRGKANLTKYREASVEVMEIMSRFAVIERASIDEAYVDLTSAVQERLQKLQGQPISADLLPSTYIEGLPQGPTTAEETVQKEGMRKQGLFQWLDSLQIDNLTSPDLQLTVGAVIVEEMRAAIERETGFQCSAGISHNKVLAKLACGLNKPNRQTLVSHGSVPQLFSQMPIRKIRSLGGKLGASVIEILGIEYMGELTQFTESQLQSHFGEKNGSWLYAMCRGIEHDPVKPRQLPKTIGCSKNFPGKTALATREQVQWWLLQLAQELEERLTKDRNDNDRVATQLVVSIRVQGDKRLSSLRRCCALTRYDAHKMSHDAFTVIKNCNTSGIQTEWSPPLTMLFLCATKFSASAPSSSTDITSFLSSDPSSLPKVPVTSSEAKTQGSGPAVTATKKATTSLESFFQKAAERQKVKEASLSSLTAPTQAPMSNSPSKPSLPFQTSQSTGTEPFFKQKSLLLKQKQLNNSSVSSPQQNPWSNCKALPNSLPTEYPGCVPVCEGVSKLEESSKATPAEMDLAHNSQSMHASSASKSVLEVTQKATPNPSLLAAEDQVPCEKCGSLVPVWDMPEHMDYHFALELQKSFLQPHSSNPQVVSAVSHQGKRNPKSPLACTNKRPRPEGMQTLESFFKPLTH
Question: Which localisation_or_trafficking [4] does the source give for B8 here?
Answer: no change

Question: And the localisation_or_trafficking [2]?
Answer: increases
